# In paper doi:10.1101/2021.12.01.470723:
# Read-outs that look alike come from different tables or passages of the source.
# Experiments:
# [1] = target: Asp105 (UniProt position 105, GLVVYDYQQLL); experiment: CD spectroscopy; conditions: 25 °C; Free folded domain, 4.2-10 µmol/L protein
# [2] = target: rh wildtype Bri2 BRICHOS (human) (UniProt Q9Y287); experiment: SEC
# [3] = target: rh wildtype Bri2 BRICHOS (human) (UniProt Q9Y287); experiment: SEC; remark: listed apart in the source
substance,measurement,setting,value
"Prosurfactant protein C (proSP-C) BRICHOS domain, wild type (Homo sapiens)",pKa,[1],about 6.1
rh wildtype Bri2 BRICHOS (from UniProt Q9Y287 113-231) (domain or fragment),stoichiometry N,[2],2
same,stoichiometry N,[3],2
